This is an account of results in publication PMC12075633.

Several values for one entry are separate records, joined by “and”; a condition that tells them apart may be missing. Identical values can stand only once.

The target of test [1] is ECF module (EcfA_K122C, EcfA', EcfT) of the C-sensor, cysteine-less background, fluorophore-labelled (Lactobacillus delbrueckii). The experiment in a line: FRET or BRET; single-molecule FRET, TIRF; labelled complex reconstituted in liposomes (E. coli polar lipids:PC:DOPE-biotin, protein to lipid 1:10.000) immobilised by biotin-neutravidin; 50 mM KPi pH 7.5, 150 mM NaCl; apo, also with Mg-AMP-PNP, Mg-ADP or 10 µM vitamin B12 alone; 90 s recordings, 200 ms frames.

The target is the same in test [2]. As to the kind of experiment: FRET or BRET; single-molecule FRET, TIRF; labelled complex in immobilised liposomes (protein to lipid 1:10.000) with 10 mM Mg-ATP outside (or on both sides), with or without 10 µM vitamin B12 in the lumen; 50 mM KPi pH 7.5, 150 mM NaCl; 90 s recordings, 200 ms frames. For orientation: In BRET a luciferase serves as donor, and the signal depends on an acceptor being close.

“CbrT_A182C (S-component of the C-sensor, cysteine-less background, fluorophore-labelled) (natural protein)” showed a percent of recorded traces with a dissociation (apo and AMP-PNP conditions) in test [1] of 1%. In test [2], the half-life to the first dissociation event after ATP addition (ATPout + B12in) is 7 s; the half-life to the first dissociation event after ATP addition (ATPout) came to 10 s; the mean dwell time of the associated state (10 mM Mg-ATP outside; with or without vitamin B12, not told which) was 7.9 s and 8.7 s; the mean dwell time of the dissociated state (10 mM Mg-ATP outside, with and without vitamin B12) came to 20 s. For the same substance, in test [2], the percent of dynamic traces (association/dissociation transitions), 10 mM Mg-ATP outside was determined as 22.1%; the percent of dynamic traces (association/dissociation transitions), ATP outside and 10 µM vitamin B12 in the lumen came to 18.7%; the percent of dynamic traces (association/dissociation transitions), Mg-ATP on both sides of the membrane came out at 13.2%; the percent of traces static at the low-FRET value 0.08 (dissociated), 10 mM Mg-ATP outside amounted to 19.6%.
